Where a chain is given by its changes, count along the chain named. Names and notes keep the numbering of the source. Values joined by “and” are separate entries in the source; they are usually repeats but may differ in a detail not shown here. Identical values can stand only once. Like-named read-outs stand apart in the source and are kept apart here. Where only a bound is given, the exact number is not on record here.

The target in experiment [1] is LHCP (light-harvesting chlorophyll a/b binding protein), fluorescein-labeled (UniProt P07371 38-269). The experiment can be described thus: fluorescence polarisation.
Experiment [2] shares this target. The experiment can be described thus: fluorescence polarisation. The source holds these as a separate data set.

B1: cpSRP43 ΔCD2ΔCD3 (CD1–Ank4 fragment) (domain or fragment)
chain: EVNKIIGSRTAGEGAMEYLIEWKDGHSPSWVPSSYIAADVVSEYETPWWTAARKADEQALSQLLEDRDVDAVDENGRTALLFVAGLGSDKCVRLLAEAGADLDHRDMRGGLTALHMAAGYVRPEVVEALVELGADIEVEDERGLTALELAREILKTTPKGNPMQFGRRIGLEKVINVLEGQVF
For the molecule B1, the equilibrium dissociation constant (Kd) in experiment [1] was above 10000 nM.

B2: cpSRP (chloroplast signal recognition particle, cpSRP43 with cpSRP54) (complex)
chain 1: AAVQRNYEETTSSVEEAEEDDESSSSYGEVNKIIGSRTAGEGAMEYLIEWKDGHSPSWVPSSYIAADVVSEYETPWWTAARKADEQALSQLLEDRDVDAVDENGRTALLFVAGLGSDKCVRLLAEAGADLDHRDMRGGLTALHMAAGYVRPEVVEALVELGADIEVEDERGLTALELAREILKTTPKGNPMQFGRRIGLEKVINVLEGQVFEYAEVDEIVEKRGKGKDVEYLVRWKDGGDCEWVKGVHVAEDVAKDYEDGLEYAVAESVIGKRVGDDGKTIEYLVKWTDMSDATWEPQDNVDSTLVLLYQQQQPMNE
chain 2: EMFGQLTGGLEAAWSKLKGEEVLTKDNIAEPMRDIRRALLEADVSLPVVRRFVQSVSDQAVGMGVIRGVKPDQQLVKIVHDELVKLMGGEVSELQFAKSGPTVILLAGLQGVGKTTVCAKLACYLKKQGKSCMLIAGDVYRPAAIDQLVILGEQVGVPVYTAGTDVKPADIAKQGLKEAKKNNVDVVIMDTAGRLQIDKGMMDELKDVKKFLNPTEVLLVVDAMTGQEAAALVTTFNVEIGITGAILTKLDGDSRGGAALSVKEVSGKPIKLVGRGERMEDLEPFYPDRMAGRILGMGDVLSFVEKATEVMRQEDAEDLQKKIMSAKFDFNDFLKQTRAVAKMGSMTRVLGMIPGMGKVSPAQIREAEKNLLVMEAMIEVMTPEERERPELLAESPERRKRIAKDSGKTEQQVSALVAQIFQMRVKMKNLMGVMEGGSIPALSGLEDALKAEQKAPPGTARRKRKADSRKKFVESASSKPGPRGFGSGN
With B2, in experiment [2], the Kd was 76 nM and 128 nM.

B3: cpSRP-Y204A (cpSRP assembled from cpSRP43-Y204A and cpSRP54) (complex)
chain 1: B2 chain 1 with Y148A
chain 2: B2 chain 2
B3 gave a Kd in experiment [2] above 5000 nM.

B4: cpSRP-R161A (cpSRP assembled from cpSRP43-R161A and cpSRP54) (complex)
chain 1: B2 chain 1 with R105A
chain 2: B2 chain 2
B4 displayed a Kd in experiment [2] of 1200 nM.

The values are drawn from publication PMC2917185 (Nature structural & molecular biology, 2010).
